Measurements: patent US20160298152A1 (CALIFORNIA INSTITUTE OF TECHNOLOGY, published 2016)

What was measured:
[1] = target: T1, PfTrpA (α-subunit of tryptophan synthase from Pyrococcus furiosus) (Pyrococcus furiosus, UniProt Q8U094 1-248); test: inferred from inhibition of enzyme activity on adding PfTrpA
T1 construct: Expressed in E. coli; Purified by Q HP HiTrap flow-through, ammonium sulfate precipitation and phenyl Sepharose chromatography; also called P. furiosus TrpA
T1 sequence (looked up): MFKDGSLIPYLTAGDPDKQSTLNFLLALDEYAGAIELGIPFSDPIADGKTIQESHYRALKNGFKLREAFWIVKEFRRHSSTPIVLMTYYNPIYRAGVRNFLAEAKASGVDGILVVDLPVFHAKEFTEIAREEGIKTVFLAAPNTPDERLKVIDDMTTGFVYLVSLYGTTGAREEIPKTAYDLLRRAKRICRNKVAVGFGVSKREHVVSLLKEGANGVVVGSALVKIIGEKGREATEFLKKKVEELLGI

[2] = target: T2, PfTrpB^4D11 (PfTrpB E17G, I68V, T292S, F274S, T321A)
T2 chain: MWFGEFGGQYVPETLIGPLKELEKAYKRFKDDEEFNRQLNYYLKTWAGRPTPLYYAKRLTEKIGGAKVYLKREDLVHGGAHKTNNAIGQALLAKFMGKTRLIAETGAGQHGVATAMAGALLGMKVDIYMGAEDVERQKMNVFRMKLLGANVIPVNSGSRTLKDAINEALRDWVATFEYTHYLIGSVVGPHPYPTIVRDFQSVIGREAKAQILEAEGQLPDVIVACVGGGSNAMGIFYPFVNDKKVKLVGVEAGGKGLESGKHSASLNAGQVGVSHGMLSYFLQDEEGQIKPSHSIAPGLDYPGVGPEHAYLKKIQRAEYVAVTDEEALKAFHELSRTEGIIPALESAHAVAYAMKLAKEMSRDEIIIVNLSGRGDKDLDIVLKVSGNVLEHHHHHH

[3] = target: T3, PfTrpB^0B2 (PfTrpB P12L, E17G, I68V, T292S, F274S, T321A)
T3 chain: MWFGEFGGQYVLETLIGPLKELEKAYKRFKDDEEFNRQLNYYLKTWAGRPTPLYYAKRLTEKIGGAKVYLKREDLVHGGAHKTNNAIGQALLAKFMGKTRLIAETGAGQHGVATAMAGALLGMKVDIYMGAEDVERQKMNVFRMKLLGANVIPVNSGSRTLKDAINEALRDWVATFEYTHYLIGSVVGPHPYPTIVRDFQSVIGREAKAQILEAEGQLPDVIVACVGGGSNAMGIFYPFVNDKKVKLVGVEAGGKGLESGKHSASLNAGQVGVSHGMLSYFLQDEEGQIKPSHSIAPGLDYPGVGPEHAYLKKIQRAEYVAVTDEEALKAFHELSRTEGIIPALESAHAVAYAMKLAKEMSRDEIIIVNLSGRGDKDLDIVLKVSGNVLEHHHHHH

[4] = target: T4, PfTrpB^2G9 (PfTrpB T292S)
T4 chain: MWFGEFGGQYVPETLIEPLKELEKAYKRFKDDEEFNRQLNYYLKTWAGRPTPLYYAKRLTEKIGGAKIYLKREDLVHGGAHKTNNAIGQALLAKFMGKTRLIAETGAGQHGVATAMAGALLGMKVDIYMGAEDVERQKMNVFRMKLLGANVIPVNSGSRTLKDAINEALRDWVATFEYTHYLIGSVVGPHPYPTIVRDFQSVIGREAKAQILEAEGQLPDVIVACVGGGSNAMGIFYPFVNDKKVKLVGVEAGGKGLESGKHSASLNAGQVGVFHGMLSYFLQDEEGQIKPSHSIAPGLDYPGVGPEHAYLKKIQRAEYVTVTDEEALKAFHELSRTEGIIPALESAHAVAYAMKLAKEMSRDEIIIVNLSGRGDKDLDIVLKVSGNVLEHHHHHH

[5] = target: T5, PfTrpB (wild-type β-subunit of tryptophan synthase from Pyrococcus furiosus)
T5 chain: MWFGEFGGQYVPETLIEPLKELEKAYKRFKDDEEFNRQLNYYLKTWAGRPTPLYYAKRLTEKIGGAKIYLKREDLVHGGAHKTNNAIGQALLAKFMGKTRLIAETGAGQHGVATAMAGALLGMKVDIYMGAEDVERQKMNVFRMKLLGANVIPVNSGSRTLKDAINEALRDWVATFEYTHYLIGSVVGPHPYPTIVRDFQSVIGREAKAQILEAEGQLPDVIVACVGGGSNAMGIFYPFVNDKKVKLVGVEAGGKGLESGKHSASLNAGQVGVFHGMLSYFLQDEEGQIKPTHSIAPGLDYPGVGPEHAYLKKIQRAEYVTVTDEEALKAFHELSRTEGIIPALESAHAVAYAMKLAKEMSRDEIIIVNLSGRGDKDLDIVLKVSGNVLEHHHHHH

[6] = target: T6, TmTrpB (wild-type β-subunit of tryptophan synthase from Thermotoga maritima)
T6 chain: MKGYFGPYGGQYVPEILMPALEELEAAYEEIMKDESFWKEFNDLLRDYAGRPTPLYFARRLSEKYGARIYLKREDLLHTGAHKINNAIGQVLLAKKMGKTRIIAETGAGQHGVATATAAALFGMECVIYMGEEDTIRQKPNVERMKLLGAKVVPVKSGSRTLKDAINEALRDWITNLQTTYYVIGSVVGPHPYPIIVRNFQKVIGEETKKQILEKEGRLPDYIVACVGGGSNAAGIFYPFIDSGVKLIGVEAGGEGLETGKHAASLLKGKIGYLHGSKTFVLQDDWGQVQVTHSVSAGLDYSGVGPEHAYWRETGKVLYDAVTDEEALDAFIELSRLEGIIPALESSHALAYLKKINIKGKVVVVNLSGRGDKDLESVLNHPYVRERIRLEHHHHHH

B1: PfTrpB^0B2 (PfTrpB P12L, E17G, I68V, T292S, F274S, T321A) (enzyme)
chain: MWFGEFGGQYVLETLIGPLKELEKAYKRFKDDEEFNRQLNYYLKTWAGRPTPLYYAKRLTEKIGGAKVYLKREDLVHGGAHKTNNAIGQALLAKFMGKTRLIAETGAGQHGVATAMAGALLGMKVDIYMGAEDVERQKMNVFRMKLLGANVIPVNSGSRTLKDAINEALRDWVATFEYTHYLIGSVVGPHPYPTIVRDFQSVIGREAKAQILEAEGQLPDVIVACVGGGSNAMGIFYPFVNDKKVKLVGVEAGGKGLESGKHSASLNAGQVGVSHGMLSYFLQDEEGQIKPSHSIAPGLDYPGVGPEHAYLKKIQRAEYVAVTDEEALKAFHELSRTEGIIPALESAHAVAYAMKLAKEMSRDEIIIVNLSGRGDKDLDIVLKVSGNVLEHHHHHH
notes: not shown: C-terminal his-tag from pET22(b)+
Q: Does B1 bind [1]?
A: Result: binds

B2: PfTrpA (α-subunit of tryptophan synthase from Pyrococcus furiosus) (protein)
chain: MFKDGSLIPYLTAGDPDKQSTLNFLLALDEYAGAIELGIPFSDPIADGKTIQESHYRALKNGFKLREAFWIVKEFRRHSSTPIVLMTYYNPIYRAGVRNFLAEAKASGVDGILVVDLPVFHAKEFTEIAREEGIKTVFLAAPNTPDERLKVIDDMTTGFVYLVSLYGTTGAREEIPKTAYDLLRRAKRICRNKVAVGFGVSKREHVVSLLKEGANGVVVGSALVKIIGEKGREATEFLKKKVEELLGI
Q: For B2, which kcat change with TrpA [2] is on record?
A: The kcat change with TrpA was 0.3 fold.

Q: What about the kcat change with TrpA [3] of the same binder?
A: The kcat change with TrpA was 0.04 fold.

Q: What about the kcat change with TrpA [4] of the same binder?
A: The kcat change with TrpA was 0.34 fold.

Q: What about the “increase in catalytic efficiency” value [5] of the same binder?
A: Its value is 12-fold increase in catalytic efficiency.

Q: And the kcat change with TrpA [5]?
A: Its kcat change with TrpA is 3.2 fold.

B3: TmTrpA (α-subunit of tryptophan synthase from Thermotoga maritima) (protein)
chain: MKGFIAYIPAGFPDLETTRKILIALNELGITGVEIGVPFSDPVADGPVIQLAHSVALRNGVTIKKILEMLSEISVDYDLYLMSYLNPIVNYPEGKEKLLDELKKLGVKGLIIPDLPLREVKNVDIAYPIVPFVAPNTKDEEIDLINSVQAPFVYYISRYGVTGEREDLPFADHIKRVKERIKLPLFVGFGISRHEQVKKVWEIADGVIVGSALVRIMEENPKDEIPRKVVEKVKELLGK
Q: B3 was tested. Which kcat (s^-1) of the TmTrpS complex [6] did it give?
A: The kcat (s^-1) of the TmTrpS complex was 2.2 s⁻¹.
